Assay results published in the supplement of paper PMC9170038.

Tested on: MS2 coat protein
Assay: apparent KD of MS2 coat protein; designed switch direction (-1 OFF switch, 1 ON switch): -1; higher = weaker reporter binding
Method in brief: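 Apparent KD, taken as the median over clusters for each design, was obtained by curve-fitting normalised cluster fluorescence. Designed RNA switches had been transcribed on Illumina chips by stalled E. coli RNA polymerase and titrated with SNAP-549-labelled MS2 coat protein, doubling from 0.7 or 1.5 nM to 3 µM.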

[1] = Eterna round: R95, input ligand: FMN 200 uM
[2] = Eterna round: R95, input ligand: microRNA oligo, concentration not stated
[3] = Eterna round: R95, input ligand: none
[4] = input ligand: microRNA oligo, concentration not stated

Sequence	apparent KD of MS2 coat protein [2] [nM]	apparent KD of MS2 coat protein (input ligand: FMN 200 uM) [nM]	apparent KD of MS2 coat protein (input ligand: none) [nM]	other results
UUACGGCGGAUCGUGGCUUUUUGCUCGUCUUGUGCUACAACAUGAGGAUCACCCAUGUAGAGGUGAUCCGUUGUAUU [Grok-var2-19 mod JAL] (puzzle: Sensor v3, turn-off variant 2)	22.3	–	–	apparent KD of MS2 coat protein [1]: 92.4 nM; apparent KD of MS2 coat protein [3]: 120 nM
AAUGGAUGUGUUAGGAUAUCCGGAGGGAAACCUCCGGAGAAGGAACAUGAGGAUCACCCAUGUAUGUAAAAUAC [AK-MS2ROC-r4-Bmoexclusion4-3] (Eterna round: R97, puzzle: Brourd's mod of Exclusion 4)	–	449	111	–
UCGAUGUGAGGAUAUAUUUUUUUUUUUCCUUAUGUUUUAUAACUUGAGGAUCACCCAAGUAGAAGGCGCUACGU [JR_Ex2_Sub063] (Eterna round: R97, puzzle: Exclusion 2)	–	70.6	136	–
UGUUGUCGCGUAGGAUAUGAGGAUCACCCAUAGAAGGAUAUCGAAAGAGAAGGUCUGAGGAUUACCCAGAAGGACGGGACAACU [pwkr exNG2 2xF5 2xFMN.14] (Eterna round: R96, puzzle: Exclusion NG 2)	–	682	151	apparent KD of MS2 coat protein [4]: 160 nM
UUUAGUUCAGGAUAUGUAGACAUUAACAUGAGGAUCACCCAUGUAGAUCCUGAAUUGGCUACAGAAGGGAGCAUUU [Mod of Brourd 10 - Jieux - Exclusion 5] (Eterna round: R97, puzzle: Exclusion 5)	–	109	28.4	–
GCUGGUCAAGGAUAUGCAUUCGUGCUUCGGCACGUAAGGUCACAUGAGGAUCACCCAUGUAGAAGGUGACCAGC [E2/6-C1] (Eterna round: R97, puzzle: Exclusion 2)	–	31.6	20.9	–
UACAAGCUUUUAAGAUCCUACAUGAGGAUCACCCAUGUGCUCGUCUUAUAACGUACUGUGACGAAAGUCACGGUACG [JL TOV1 3.21] (Eterna round: R97, puzzle: Sensor, turn-off variant 1)	–	92.9	103	–
CCCAGUUAUUGAGGAUAUCGUACAUGAGGAUCACCCAUGUAAUAAAUGAGGAUUUCGGGUGUCUACGAGAAGGCAAGGAUAGGC [Ostracism 21 - Jieux - Exclusion NG 2] (Eterna round: R96, puzzle: Exclusion NG 2)	–	61.3	49.6	apparent KD of MS2 coat protein [4]: 37.4 nM
GAAAAGGUAGGAUAUACGAAAAAAAAGGGUAGAGAAAAAACACAUGAGGAUCACCCAUGUAGAAGGACCAAAAG [salish99_ex2_r3_023] (puzzle: Exclusion 2)	27.1	–	–	apparent KD of MS2 coat protein [1]: 84.8 nM; apparent KD of MS2 coat protein [3]: 26.7 nM
CAGUACUGAGGAUAUACAUGAGGAUCACCCAUGUGAUUUAGUGCACGCGUACGUGUACGUAGAAGGCAGUACUG [JL 3.27 m1] (Eterna round: R97, puzzle: Exclusion 3)	–	182	20.8	–
GUGCGGUGAGGAUAUACGUAGGUGAAAAUCUGUGUGUUCCUACAUGAGGAUCACCCAUGUAGAAGGCAUGUCAC [LRO-Excl2-14] (puzzle: Exclusion 2)	47.6	–	–	–
CCAAGCUUAUUCAUUAACAACAUGAGGAUCACCCAUGUAUAGGCAAUUAUGUCUGGGCUCUUUAGUGCUCGUCUUAU [Sensor-V1 #24] (Eterna round: R97, puzzle: Sensor, turn-off variant 1)	–	18	19.8	–
GGUUAUUGCAAGGAUAUGCUUUUUUUUUAUUUUGCAGAAGGUGCAACAUGAGGAUCACCCAUGUUGGAGGGUUU [JR_E6_Sub023] (puzzle: Exclusion 6)	21.7	–	–	–
AAUAACAAGCCGAUCCUCUACAUGAGGAUCACCCAUGUGUUCGUCUUGUAAAGUACUAUCACGAAAGUGAUAGUACA (Eterna round: R97, puzzle: Sensor, turn-off variant 1)	–	209	244	–
UCGACCGGAGGAUAUUACGUAAAGUACAUGAGGAUCACCCAUGUGUGGUACCUCGAGUCGUAAGAAGGCCGAAAUA [Teisor] (puzzle: Exclusion 5)	605	–	–	apparent KD of MS2 coat protein [1]: 283 nM; apparent KD of MS2 coat protein [3]: 505 nM
GUAUAUAGUGUGAGGAUAUGCUGGUCCUUGGAUCAGCAGAAGGCACAUGAGGAUCACCCAUGUAGUUAAAUAUG [Mat - Exclusion 4 - JL Mod - D21] (puzzle: Brourd's mod of Exclusion 4)	26.3	–	–	–
AUAAAGUGAGGAUAUCCAAUAUAUGACAUGAGGAUCACCCAUGUUUCCACUCGUACCUCCGGAGAAGGCACAAAAU [Ex5 #61] (Eterna round: R97, puzzle: Exclusion 5)	–	24.5	30.5	–
UUUUAGGGAGGAUAUACAUUUUUUUUAUUAUCCUCAUUAAUACAUGAGGAUCACCCAUGUAGAAGGCCCAUUUU [Mat - Exclusion 2 - Mod of Hog - D84] (puzzle: Exclusion 2)	47.9	–	–	–
